From a protein production outcome set (Wang et al. 2014)

Assay: label from the status in PepcDB records

| Sequence | protein production |
| --- | --- |
| MNPGGAEVSVVIPAWNAEATLGRALASVRAQTLAPRQVIVVNDGSSDATPEIAARMATKTFPVTVIDRTGRGSGPAAARNAGIAAAGEPFVAFLDADDVWLPDKLARQMAALRASPDAVLCCCDAQWVGEDAPARTAHPTIYEDRPIKGGAEAWKEILLDCYVGTPCVVARRAALIEAGGFDERLVVGEDQDLWIRLALQGPVIALPEVLVRYGLSADSHMARHRALAASLWLPHFEALVSGLGARLSAGERDAILRARLWRMARSVYLDGRKDLGLSLMARAVAHGLPRRARMVFLARARLRSALGRNGLEHHHHHH | failed |
| MNQQLLAKTFVELADNLVADFDLIDFLRLLTDRCVGMLDASAAGVLLADRNGELRVMAASDEQVRLLELFQLQNDEGPCLDCFRTGAPVTVPDLSAVTARWPRFAVQARRSGFGAVQALPMRLRDEVVGALNLFRATPGPFDPAATPLAQALADVATISLLQQRTAHRSTVLNEQLQTALNSRVLIEQAKGKLAERQGVDMERAFTALRTYARAHNRRLSDVARAFIDNSEPLTGLGS | failed |
| MSLHPNIQAVTDRIRKRSAPSRAAYLAGLDAALREGPFRSRLSCGNLAHGFAASEPGDKSRLRGAATPNLGIITAYNDMLSAHQPFEHYPQLIRETARTLGATAQVAGGVPAMCDGVTQGRAGMELSLFSRDNIAQATAIGLSHDMFDSVVYLGVCDKIVPGLLIGALAFGHLPAIFMPAGPMTPGIPNKQKAEVRERYAAGEATRAELLEAEASSYHSPGTCTFYGTANSNQVLLEAMGVQLPGASFVNPELPLRDALTREGTARALAISALGEDFRPFGRLIDERAIVNAVVALMATGGSTNHTIHWIAVARAAGIVLTWDDMDLISQTVPLLTRIYPNGEADVNRFQAAGGTAFVFRELMDAGYMHDDLPTVVEGGMRAYINEPRLQDGKVTYVPGTATTADDSVARPVGDAFESQGGLRLLRGNLGRSLIKLSAVKPQHRSIQAPAVVIDTPQVLNKLHAAGVLPHDFVVVLRYQGPRANGMPELHSMAPLLGLLQNQGRRVALVTDGRLSGASGKFPAAIHLTPEAARGGPIGRVREGDIVRLDGEAGTLEVLVSAEEWASREVAPNTSVAGNDLGRNLFAINRQVVGPADQGAISISCGPTHPDGALWSYDAEYELGADAAAAAAPHESKDA | failed |
| MLLSGWGKFVRWLLVLLSILVIIIGINLILDGVYGFGTFSTTQMYQVAKDPLIGVLIGILATALVQSSTTTTTLTVTAVGTGIVSVPVAIPIILGANIGTTITAMLVAFSYVGERREFKRAFTVAAMHVWFNVLVILVLFVVELLFHPFRTISGAIATEITLTTGGSLPTSGVMTKIFDPPTQLLGMNGLIGSIGNPSISAIVCLVVGTILILISVRAMSSQIRTITAATVTSIMDKVINPENSPKATILSNFWSFILGVLFTLMVTASSVTVASMQPVAASGVVKQKPLLGVILGANVGTTVTAMFATFAIVSDQGEFAIQAALIHLIVNFTGALLVLCIPQLANVIIHLAEKTANLTARSYSITLATIVTAYVLVPSAVLMIYFFI | failed |
| MSLSDESFEFDVSVIGLGAMGTIMAQVLLKQGKRVAIWNRSPGKAAALVAAGAHLCESVKAALSASPATIFVLLDNHATHEVLGMPGVARALAHRTIVDYTTNAQDEGLALQGLVNQAGGHYVKGMIVAYPRNVGHRESHSIHTGDREAFEQHRALLEGLAGHTVFLPWDEALAFATVLHAHAFAAMVTFFEAVGAGDRFGLPVSKTARLLLETSRFFVADALEEAVRRLETQDFKGDQARLDVHADAFAHIAQSLHAQGVWTPVFDAVCQVVQRAAAMGYGDQDIAATTKSFAREQEEGHHHHHH | not failed |
| MSIFANLKDRMKAVFQPRSDILASQDAESTPGSRDALFAIEELSRAVRNDPDAVEIYLALGNLYRLRGDIDRAVQIRSSLIVRPGLDNRFRARAYLELGRDYRRGGFVDRALQAFDEAQRLGAERDAIILELAHLHADSGSFDLAAEQFGRVGHKPAQAHYLVRHAEDLCGQGEFAEAVKTLTRAVKVYPGSIEAWTTRIAMHIRSGEWRKAKSMLREAMQSVSPDRRFLVFDGILAITPPENAPDSVQQFEQNRCECVLPVISEQEPELLLHYYGALFLLRCGEREQAGNWLAKAMVLRPDFWAARLELLGISMDRQQLSPVFKGQLEYFVSQARHVKRFVCQNCGLRREQAFYLCPRCRSWHSATFRLSLQD | failed |
| MEKSNLYKVDEFGVKNYNYGILAILSFVLFAFINISLGYVTFVAETAVEGSPVKNYADAFWLMLMSSTTIGFGDVYPITLEGRIAVFTMFILGVGILGGVGAVFANKIFGFADTNIKNRELRQQNEEILLQNDKIYQKLTALEDKLEAFNRETK | failed |
| MELREWQSKIAEKIVEALRNNFLVSLQAPTGSGKTLFALYTALKVKPKVAFVVRTHNEFFPVYRELSLHFKDKKYGFLVGKSSACVFSSSDVDAQDIYCNGCEIFNASAVTVTDSPKVSLNKLKEEGKKLGFCPYYSLLETIKTADVILLTYPYLFIPWLRESLDINWEDYVVIVDEAHNIENVSNIEEKKLNKRIIEMAISQSHSQNVKVILERLKENVEKAVYSEDKYILIEKDKLDNILPSNEEIEILSEEYDEIRKIMIKNKTVSRNYLGSILRFFDLVNDEGIRVFSYSGSLIAKYIIPSYFTDILNDEKITYMLMSGTMQPLDYLRNIIGIKRKILYIDAEKVMKKRLTGTYECLISIDVTTTYSLRSEQMARKYASYLLKIFYNSRRHVLAIFPSYEFMRIVSKFLNIRYLAEDTETSIEEIMSNLKKEKTIIMGIARGKLAEGIEIVENGSSLISDVAMVGIPYPPIDDYLKIRVEEISKILKKDISNELISIQALIAVKQSIGRAIRGPTDNATIWLLDKRYDSLWWKKELNCLNARKIKL | failed |
| MEQQKDYIELYENEELIEIREARMDDLDTIAKFNYNLAKETEGKELDMDVLTKGVKALLLDERKGKYHVYTVFDKVVAQIMYTYEWSDWRNGNFLWIQSVYVDKEYRRKGIFNYLFNYIKNICDKDENIVGMRLYVEKENINAKATYESLNMYECDYNMYEYEVIHS | failed |
| MALQLATLCFVSFSALFFVVDPFSAVPFFLALTRNDDPRRRREIALRASVTAFAVLAAFALTGEWIFRLLGIGLPAFKVAGGVVLLLLALDMVRTQPSRTRITQGEVDASADKEDVAIVPLAMPLLAGPGSIATAIVLMVRARGEDWWHPLPVLLAIALTCLASYLILAGAARTEKVLGRTGLAILERVAGLLLVAIAVQFMMDGLAEGLPRAFPLR | failed |
| MNYLPMMIVFPLIMAIIMNLLHGKEKAVKYITFITAAILIILPFISQYGYYYFGGHGVVNGWVSGIAYLYNPAKQAIIVTLSLIASLVLITGMGEKLKNNMFVTLSLMGFASIAAIVLADDIFNLYVFFEIVSIVQAGLVFLSGTEEAYKAGLRYMIMGNVAAALMLLGIAFLLASTGTLNITDMKHYLLVDNPMIYGGLLLLIVGLAYGAGLPPFHNVKADLYARSKGFISAMLQTYSKFVLVGLMIIILKLFNGLDYFASAHAVLIALGVLAMVFGVVMALLQSDYKKLLAYHAISQGGYVATGLALGTPLGIVAGIFHAINHVIYKSALFLGAYIVSCKRGSNLHKLGGLLPLMPSVAFMVLCAKLAISGIPPFNGFQSKWMLAQAAMQVNMPEIAIIMIIVSIGTFVSMMKAFYLIYLKPVDEETLKEYQNKEVPKLAVFSLFVLTALCIIIGLYPDIVTNYLWDYAKELGVNYYLK | failed |
| MADTNYIRDLSLHRNNHVLYVKILSIWDNQSMIFGTPTTMILYDVKGTRIDTRVPWGDYLNNFKPSLFEGKWYYIADFRLKRATSIPKYSSFNYEIEFMWHTKMWPVSDRSDESSLQFIHADEIESESEDYVTDAIGVISSVSTEARFPYVCREGETDYEARYVTFTIRDNLDRIITCVARGSACESFLTKFYRLIGMKTYNYEPITTVLRFFRASNFKGSKALISEHGCSRIFIEESFPDFDVTVYINWFACEDDGSVEGKIEYFVEN | failed |
| MREVSLRIDRYLVNTRITPNQLTYLMTVCGVLAAPALLVPGIWGAVLGVVAVQLYLLLDCVDGEIARWRKQYSLGGVYLDRVGAYLTDAAVLVGLGLRAADIWGTGRIDWLWAFLGTLAALGAILIKAETDLVGVARHQNGMPPVKEAASEIRSSGMALARRAAGALKFHRLILGIEATLLILVLAIVDQARGDLFFTRLGTAVLAGIALLQTLLHLVSILASSRLK | failed |
| KVVLYARVSSKQKDELVNQVKYLEEQVKEYDLVITDIGSGLNMKRKGFLKLLRMILNNEVSRVVIAYPDRLVRFGFEILEETCKAHGCEIVVLNQEEKEEELVEDLISVLVSFSEKLHGMRSHEYEKVKKCAEELKN | failed |
| MDSAAPDCTAKCRSLKHALDVLSVITKGSERQIKIFLSSYCYNAATVKDAFGRNALHLVSSCGKKAVLDWLIEKGVDLLHGVSLYMQDKEGLSPLDLLMKDRPAHVVFKNTDPTEVYTWGDNTNFTLGHGSQNSKHHPELLDLFSRSRVYVKQVVLCKFHSVFLSQQGQVYTCGHGRGGRLGHGDEQTCLVPRLVEGLSGHSCSQVAAAKDHTVVLTEDGCVYTFGLNTFHQLGIIPPPSSCNVPRQSRSSKHGHNSAQLQLIPGERQLNLKKVLVSGGCMEYKVDPEHLTENGGQKICILAMDGAGRVFCWRSLSSSLKQCRWAYPRQVSISDIALNRNEILFVTQDGEGFKGKWFEDKRKNSEKKADILPNLHHSSSDVSCVSDTNSVYERIRLEKLPFAHRAVSVSTDPSGCNFAILQSDPKTSLYEIPVVSSSSFFEEFGKLLRETDEMDSFHDVTFQVGNRLFPAHKYVLAVRSDFFQKLFLSDGTLLELTDVYRKDEDAAGCHLFVVEKVHPDLFEYLLQFMYTDTCDFLTHGFKPRMIMNKKSEDSKGSPESRLHAVNCHVDDKQKSAFEVYRSNQAHTLSERQKSKPKSSKKGKGVGEDDPVKMLQNVAKKFGLSNLSSRLDGVRYENEKINVIAKKTGNKLKLSQKKCSFLYDVTMKSVDGKEFPCHKCVLCARLEYFHSMLSRSWIEASSCAALEMPIQAEILKVILDYLYTDEAVVIKESQNVDFVCSVLVVADQLLITRLKEMCEVALAENLTLKNAAMLLEFASMYNAEQLKLSCLQFIGLNMAALLEARSLDVLSEDVLKDLSIFYRKMVPAMERRVITPYQDGPDISCVQAEDGEVFLKEEISLEPNHSPWLSSSLAASPAVAPVTFASIVEEERQQEAALIRSREKPLALIQVEEHAIQDLLVFYEAFGNPDEFVIVERTPQGPVAVPMWNKHGC | failed |
| MKIRVADEKELPMILQFLTEVKAYMDVVGITQWTKDYPSQGDIQEDITKKRLYLLVHEEMIFSMATFCMEQEQDFVWLKRFATSPNYIAKGYGSLLFHELEKRAVWEGRRKMYAQTNHTNHRMIRFFESKGFTKIHESLQMNRLDFGSFYLYVKELENQSIV | not failed |
| YTVEPVQDGERSVTLRRAGGTPLVAAMYHLPAAGSPDFVGLDLAATILADTPSGRLYHALVPTKLASGVFGFTMDQLDPGLAMFGAQLQPGMDQDKALQTLTATLESLSSKPFSQEELERARSKWLTAWQQTYADPEKVGVALSEAIASGDWRLFFLQRDRVRDAKLDDVQRAAVAYLVRSNRTEGRYIPTEKPQRAPLAQRADLAAV | not failed |
| MKVLVFICGEGLGHTSRGIALGRELLAAGHEVYLGAYGYSKEFIERKGYKTVEIPPEIKLVGESGSLNLKRSIISTLKGGNVFGIFKVLSLLKEKKPDIVVSDSYFTGVVASKIRGIPVYLIVNQSNMETFFKNGGIALRTMGGIIKQFYSCIFRRVDRIVIPDFPMPYTVCRLNLAFEEKVSKNLFFSGPLTLKKFDDVKAEVLQKPHVLSLIGGFGYREPIFRKVIEVAKLDKSINYTLLSGPSLNPDVFSNLPENVTIKRFINDQFPYLKASDLVIAPGGHSTIMEALTFGVPVLSFPDINHSEQESNATVVDLAGYGKRLDYSASPEEILRSIKELLKDEKIHQKVEIMKKLSKDLNATATFKELLESNSKRSQKV | failed |
| MMGSVELNLRETELCLGLPGGDTVAPVTGNKRGFSETVDLKLNLNNEPANKEGSTTHDVVTFDSKEKSACPKDPAKPPAKAQVVGWPPVRSYRKNVMVSCQKSSGGPEAAAFVKVSMDGAPYLRKIDLRMYKSYDELSNALSNMFSSFTMGKHGGEEGMIDFMNERKLMDLVNSWDYVPSYEDKDGDWMLVGDVPWPMFVDTCKRLRLMKGSDAIGLAPRAMEKCKSRA | failed |
